Values joined by “and” are separate entries in the source; they are usually repeats but may differ in a detail not shown here. Equal entries are not always repeated.

B1: mouse anti-canine IL-4Rα monoclonal antibody 11H2 (antibody, V domains shown)
VH: DVKLVESGGGLVQPGGSLKLSCAASGFTFSDYYMYWVRQTPEKRLEWVAYVSSGGGSIYYPDTVKGRFTISRDNAKNTLYLQMSRLKSEDTAMYYCARHGSPFGSSRGAWFAYWGQGTLVTVSA
VL: DIQMTQSPASLSASVGETVTITCRASENIYSYLAWYQQKQGKSPQLLVYNAKTLAEGVPSRFSGSGSGTQFSLKINSLQPEDFGNYYCQHYDGFPFTFGGGTKLELK
notes: Hybridoma-derived mouse antibody; also called mAb 11H2
B2: canine IL-4 (R&D system, cat #754-CL/CF), biotinylated (ligand, UniProt O77762 25-132, looked up)
chain: HNFNITIKEIIKMLNILTARNDSCMELTVKDVFTAPKNTSDKEIFCRAATVLRQIYTHNCSNRYLRGLYRNLSSMANKTCSMNEIKKSTLKDFLERLKVIMQKKYYRH
modifications: biotinylated with Lightning-Link Biotin Conjugation Kit Type A
notes: Purchased protein; also called canine interleukin-4; biotinylated canine IL-4
B3: canine IL-4 receptor alpha chain (full length) expressed on the surface of CHO DG44 cells (receptor)
chain: VKVLHEPSCFSDYISTSVCQWKMDHPTNCSAELRLSYQLDFMGSENHTCVPENREDSVCVCSMPIDDAVEADVYQLDLWAGQQLLWSGSFQPSKHVKPRTPGNLTVHPNISHTWLLMWTNPYPTENHLHSELTYMVNVSNDNDPEDFKVYNVTYMGPTLRLAASTLKSGASYSARVRAWAQTYNSTWSDWSPSTTWLNYYEPWEQHLPLGVSISCLVILAICLSCYFSIIKIKKGWWDQIPNPAHSPLVAIVIQDSQVSLWGKRSRGQEPAKCPHWKTCLTKLLPCLLEHGLGREEESPKTAKNGPLQGPGKPAWCPVEVSKTILWPESISVVQCVELSEAPVDNEEEEEVEEDKRSLCPSLEGSGGSFQEGREGIVARLTESLFLDLLGGENGGFCPQGLEESCLPPPSGSVGAQMPWAQFPRAGPRAAPEGPEQPRRPESALQASPTQSAGSSAFPEPPPVVTDNPAYRSFGSFLGQSSDPGDGDSDPELADRPGEADPGIPSAPQPPEPPAALQPEPESWEQILRQSVLQHRAAPAPGPGPGSGYREFTCAVKQGSAPDAGGPGFGPSGEAGYKAFCSLLPGGATCPGTSGGEAGSGEGGYKPFQSLTPGCPGAPTPVPVPLFTFGLDTEPPGSPQDSLGAGSSPEHLGVEPAGKEEDSRKTLLAPEQATDPLRDDLASSIVYSALTCHLCGHLKQWHDQEERGKAHIVPSPCCGCCCGDRSSLLLSPLRAPNVLPGGVLLEASLSPASLVPSGVSKEGKSSPFSQPASSSAQSSSQTPKKLAVLSTEPTCMSAS
notes: also called cIL-4Rα; CHO-cIL-4Rα

Experiment [1] addresses B3. In words: flow cytometry ligand blockade on CHO-cIL-4Rα cells; competitor biotinylated canine IL-4 at 0.32 µg/mL; one of two separate studies. On the procedure: Procedure: [0247] 1. CHO-DH44-canIL-4Rα cell grown to 2-4 ×10⁶ cells/mL with more than 96% viability. [0248] 2. The cells were spun down, the supernatant discarded, and the cells were suspended in FACS buffer to 2×10⁷ cells/mL. [0249] 3. The cells were distributed into a U-shape 96-well plate, 50 μl each well. [0250] 4. The anti-canine IL-4Rα mAbs in FACS buffer was diluted three-fold on a 96-well plate from top down to bottom well, starting at 50 μg/mL. [0251] 5. 50 μl of each diluted Ab was transferred into the cell plate and then incubated on ice for 30 min. [0252] 6. The cells were washed twice with FACS buffer. [0253] 7. The cells were resuspended into 100 μl of biotinylated canine IL-4 at 0.32 μg/mL in FACS buffer and incubated on ice for 30 min. [0254] 8. The cells were washed twice with FACS buffer. [0255] 9. The cells were responded into 100 μl of R-phycoerythin conjugated Streptavidin (1:1000 dilution) in FACS buffer and incubated on ice for 30 min. [0256] 10. The cells were washed twice with FACS buffer. [0257] 11. The cells were brought up to 300 μl in FACS buffer. [0258] 12. 10,000 cells were read for each sample by BD Accuri-C6. [0259] 13. The resulting readout were analyzed by FlowJo to get the mean fluorescent intensity (MFI).
In general terms: A flow cytometer gives signals particle by particle.

Experiment [2] deals with B3. In words: flow cytometry, binding to CHO-cIL-4Rα cells.
The target in experiment [3] is B3. In words: flow cytometry, cell-based CHO-cIL-4Rα binding assay.
Experiment [4] deals with B2. Description: FACS, biotinylated canine IL-4 on CHO cells expressing canine IL-4Rα.

For orientation: IC50 means the concentration that gives 50% inhibition. A low value points to greater potency. One may read the EC50 as the concentration giving half of the maximal effect. A high value points to weaker potency. Regarding B1, in experiment [1], the IC50 is 1.7 nM and 1 nM. The same molecule showed a concentration giving a half-maximal response (EC50) in experiment [2] of 1.2 nM.

In turn, B2 came in with an EC50 in experiment [3] of 25 nM.

Take B3: the binding result in experiment [4] is on record as “binds”.
